Results published in patent US20050261179.

Legend:
[1] = molecular target: T1, adrenomedullin (synthetic human AM)
T1 chain: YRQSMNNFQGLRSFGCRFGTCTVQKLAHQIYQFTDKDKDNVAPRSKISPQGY

[2] = molecular target: T2, human complement factor H, P08603
T2 chain: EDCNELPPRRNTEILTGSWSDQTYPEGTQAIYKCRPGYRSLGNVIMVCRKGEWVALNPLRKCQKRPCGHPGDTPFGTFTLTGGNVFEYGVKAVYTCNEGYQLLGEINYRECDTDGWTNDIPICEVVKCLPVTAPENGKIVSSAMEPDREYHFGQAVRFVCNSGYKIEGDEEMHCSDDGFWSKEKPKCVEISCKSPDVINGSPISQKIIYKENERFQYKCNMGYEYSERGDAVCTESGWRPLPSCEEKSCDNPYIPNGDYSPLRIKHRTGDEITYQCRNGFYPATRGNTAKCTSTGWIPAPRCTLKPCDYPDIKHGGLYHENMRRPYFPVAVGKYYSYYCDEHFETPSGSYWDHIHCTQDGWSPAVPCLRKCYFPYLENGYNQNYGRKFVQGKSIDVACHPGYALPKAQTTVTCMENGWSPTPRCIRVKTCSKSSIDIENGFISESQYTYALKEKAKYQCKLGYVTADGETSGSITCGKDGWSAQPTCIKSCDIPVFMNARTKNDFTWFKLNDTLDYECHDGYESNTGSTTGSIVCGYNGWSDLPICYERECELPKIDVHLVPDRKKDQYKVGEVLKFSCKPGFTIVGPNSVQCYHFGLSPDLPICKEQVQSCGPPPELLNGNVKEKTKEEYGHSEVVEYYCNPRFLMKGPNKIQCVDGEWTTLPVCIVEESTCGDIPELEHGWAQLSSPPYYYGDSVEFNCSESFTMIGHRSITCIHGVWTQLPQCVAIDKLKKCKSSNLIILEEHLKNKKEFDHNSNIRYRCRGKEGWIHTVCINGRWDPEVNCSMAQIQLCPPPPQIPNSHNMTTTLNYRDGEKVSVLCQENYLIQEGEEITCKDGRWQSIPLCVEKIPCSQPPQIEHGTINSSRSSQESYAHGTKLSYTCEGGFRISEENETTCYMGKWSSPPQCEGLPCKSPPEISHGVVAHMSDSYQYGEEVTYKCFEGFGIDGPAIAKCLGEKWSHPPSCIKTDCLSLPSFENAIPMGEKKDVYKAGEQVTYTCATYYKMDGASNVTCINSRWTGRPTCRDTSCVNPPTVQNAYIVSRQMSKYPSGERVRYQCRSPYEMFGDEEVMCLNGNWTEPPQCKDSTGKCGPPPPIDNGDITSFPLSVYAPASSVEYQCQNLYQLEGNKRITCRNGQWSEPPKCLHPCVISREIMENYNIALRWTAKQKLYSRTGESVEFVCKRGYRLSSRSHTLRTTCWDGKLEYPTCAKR

B1: human recombinant MMP-2 (protein)
chain: YNFFPRKPKWDKNQITYRIIGYTPDLDPETVDDAFARAFQVWSDVTPLRFSRIHDGEADIMINFGRWEHGDGYPFDGKDGLLAHAFAPGTGVGGDSHFDDDELWTLGEGQVVRVKYGNADGEYCKFPFLFNGKEYNSCTDTGRSDGFLWCSTTYNFEKDGKYGFCPHEALFTMGGNAEGQPCKFPFRFQGTSYDSCTTEGRTDGYRWCGTTEDYDRDKKYGFCPETAMSTVGGNSEGAPCVFPFTFLGNKYESCTSAGRSDGKMWCATTANYDDDRKWGFCPDQGYSLFLVAAHEFGHAMGLEHSQDPGALMAPIYTYTKNFRLSQDDIKGIQELYGASPDIDLGTGPTPTLGPVTPEICKQDIVFDGIAQIRGEIFFFKDRFIWRTVTPRDKPMGPLLVATFWPELPEKIDAVYEAPQEEKAVFFAGNEYWIYSASTLERGYPKPLTSLGLPPDVQRVDAAFNWSKNKKTYIFAGDKFWRYNEVKKKMDPGFPKLIADAWNAIPDNLDAVVDLQGGGHSYFFKGAYYLKLENQSLKSVKFGSIKSDWLGC
- AM fragments generated by MMP-2 digestion (mass spectrometry of HPLC peaks) [1]: These include AM(8-52), AM(11-52), AM(23-52), AM(29-52), AM(11-28), and AM(11-22)
- degradation of synthetic AM (gel, HPLC, mass spectrometry) [1]: MMP-2 rapidly cleaves synthetic AM in a time-dependent manner
- degradation of factor H (gel) [2]: is not a substrate for either one of the MMPs
